Residue numbers refer to the chain shown, from its start. Square brackets hold non-standard residues; d marks the D form. Tpi = O=C(O)[C@@H]1Cc2c([nH]c3ccccc23)CN1; hArg = N=C(N)NCCCC[C@H](N)C(=O)O; Cit = NC(=O)NCCC[C@H](N)C(=O)O
B1: SEQ ID NO 673 (peptide)
peptide: Ac-WVTH[Cit]LAGLLS[Cit]SGGVV[hArg]KNFVPTDVG[Tpi]FAF-NH2
SMILES: CC(=O)N[C@@H](Cc1c[nH]c2ccccc12)C(=O)N[C@H](C(=O)N[C@H](C(=O)N[C@@H](Cc1c[nH]cn1)C(=O)N[C@@H](CCCNC(N)=O)C(=O)N[C@@H](CC(C)C)C(=O)N[C@@H](C)C(=O)NCC(=O)N[C@@H](CC(C)C)C(=O)N[C@@H](CC(C)C)C(=O)N[C@@H](CO)C(=O)N[C@@H](CCCNC(N)=O)C(=O)N[C@@H](CO)C(=O)NCC(=O)NCC(=O)N[C@H](C(=O)N[C@H](C(=O)N[C@@H](CCCCNC(=N)N)C(=O)N[C@@H](CCCCN)C(=O)N[C@@H](CC(N)=O)C(=O)N[C@@H](Cc1ccccc1)C(=O)N[C@H](C(=O)N1CCC[C@H]1C(=O)N[C@H](C(=O)N[C@@H](CC(=O)O)C(=O)N[C@H](C(=O)NCC(=O)N1Cc2[nH]c3ccccc3c2C[C@H]1C(=O)N[C@@H](Cc1ccccc1)C(=O)N[C@@H](C)C(=O)N[C@@H](Cc1ccccc1)C(N)=O)C(C)C)[C@@H](C)O)C(C)C)C(C)C)C(C)C)[C@@H](C)O)C(C)C
B2: SEQ ID NO 675 (peptide)
peptide: WVTHXLAGLLSXSGGVVXKNFVPTDVGXXAF
modifications: Ac-WVTH[Cit]LAGLLS[Cit]SGGVV[hArg]KNFVPTDVG[Pip][1-Nal]AF-NH2
B3: SEQ ID NO 133 (peptide)
peptide: B2 peptide with P23X, X28P, F31X
modifications: Ac-WVTH[Cit]LAGLLS[Cit]SGGVV[hArg]KNFV[Oic]TDVGP[1-Nal]A[2-Nal]-NH2
B4: SEQ ID NO 132 (peptide)
peptide: B2 peptide with P23X, X29F, F31X
modifications: Ac-WVTH[Cit]LAGLLS[Cit]SGGVV[hArg]KNFV[Oic]TDVG[Oic]FA[2-Nal]-NH2
B5: SEQ ID NO 136 (peptide)
peptide: B2 peptide with F21X, P23X, X28P
modifications: Ac-WVTH[Cit]LAGLLS[Cit]SGGVV[hArg]KN[pI-Phe]V[Oic]TDVGP[pI-Phe]AF-NH2
B6: SEQ ID NO 134 (peptide)
peptide: B2 peptide with P23X, X28P
modifications: Ac-WVTH[Cit]LAGLLS[Cit]SGGVV[hArg]KNFV[Oic]TDVGP[Bip]AF-NH2
B7: SEQ ID NO 135 (peptide)
peptide: WVTHXLAGLLSXSGGVVXKNFVXTDVGPFAX
modifications: Ac-WVTH[Cit]LAGLLS[Cit]SGGVV[hArg]KNFV[Oic]TDVGPFA[2-Nal]-NH2
B8: SEQ ID NO 676 (peptide)
peptide: Ac-WVTH[Cit]LAGLLS[Cit]SGGVV[hArg]KNFVPTDVGP[Tpi]AF-NH2
SMILES: CC(=O)N[C@@H](Cc1c[nH]c2ccccc12)C(=O)N[C@H](C(=O)N[C@H](C(=O)N[C@@H](Cc1c[nH]cn1)C(=O)N[C@@H](CCCNC(N)=O)C(=O)N[C@@H](CC(C)C)C(=O)N[C@@H](C)C(=O)NCC(=O)N[C@@H](CC(C)C)C(=O)N[C@@H](CC(C)C)C(=O)N[C@@H](CO)C(=O)N[C@@H](CCCNC(N)=O)C(=O)N[C@@H](CO)C(=O)NCC(=O)NCC(=O)N[C@H](C(=O)N[C@H](C(=O)N[C@@H](CCCCNC(=N)N)C(=O)N[C@@H](CCCCN)C(=O)N[C@@H](CC(N)=O)C(=O)N[C@@H](Cc1ccccc1)C(=O)N[C@H](C(=O)N1CCC[C@H]1C(=O)N[C@H](C(=O)N[C@@H](CC(=O)O)C(=O)N[C@H](C(=O)NCC(=O)N1CCC[C@H]1C(=O)N1Cc2[nH]c3ccccc3c2C[C@H]1C(=O)N[C@@H](C)C(=O)N[C@@H](Cc1ccccc1)C(N)=O)C(C)C)[C@@H](C)O)C(C)C)C(C)C)C(C)C)[C@@H](C)O)C(C)C
B9: SEQ ID NO 35 (peptide)
peptide: Ac-WVTHRLAGLLSQSGGVVRCNFVPTDVGPFAF-NH2
B10: SEQ ID NO 34 (peptide)
peptide: Ac-WVTHRLAGLLSASGGVVRCNFVPTDVGPFAF-NH2
modifications: not fully specified (residue 19); printed as Ac-WVTHRLAGLLSASGGVVRCNFVPTDVGPFAF-NH2
B11: SEQ ID NO 37 (peptide)
peptide: Ac-WVTHRLAGLLSQSGGVVRKNFVPTDVGPFAF-NH2
B12: SEQ ID NO 33 (peptide)
peptide: Ac-WVTHRLAGLLSASGGVVRCNFVPTDVGPFAF-NH2
B13: SEQ ID NO 41 (peptide)
peptide: Ac-WVTHRLAGLLS[dR]SGGVVRCNFVPTDVGPFAF-NH2
SMILES: CC(=O)N[C@@H](Cc1c[nH]c2ccccc12)C(=O)N[C@H](C(=O)N[C@H](C(=O)N[C@@H](Cc1c[nH]cn1)C(=O)N[C@@H](CCCNC(=N)N)C(=O)N[C@@H](CC(C)C)C(=O)N[C@@H](C)C(=O)NCC(=O)N[C@@H](CC(C)C)C(=O)N[C@@H](CC(C)C)C(=O)N[C@@H](CO)C(=O)N[C@H](CCCNC(=N)N)C(=O)N[C@@H](CO)C(=O)NCC(=O)NCC(=O)N[C@H](C(=O)N[C@H](C(=O)N[C@@H](CCCNC(=N)N)C(=O)N[C@@H](CS)C(=O)N[C@@H](CC(N)=O)C(=O)N[C@@H](Cc1ccccc1)C(=O)N[C@H](C(=O)N1CCC[C@H]1C(=O)N[C@H](C(=O)N[C@@H](CC(=O)O)C(=O)N[C@H](C(=O)NCC(=O)N1CCC[C@H]1C(=O)N[C@@H](Cc1ccccc1)C(=O)N[C@@H](C)C(=O)N[C@@H](Cc1ccccc1)C(N)=O)C(C)C)[C@@H](C)O)C(C)C)C(C)C)C(C)C)[C@@H](C)O)C(C)C
B14: SEQ ID NO 39 (peptide)
peptide: Ac-WVTHQLAGLLSQSGGVVRKNFVPTDVGPFAF-NH2
B15: SEQ ID NO 40 (peptide)
peptide: Ac-WVTHQLAGLLSQSGGVVRKNFVPTDVGPFAF-NH2
modifications: not fully specified (residue 19); printed as Ac-WVTHQLAGLLSQSGGVVRKNFVPTDVGPFAF-NH2
B16: SEQ ID NO 21 (peptide)
peptide: WVTHXLAGLLSRSGGVVRKNFVPTDVGPFAF
modifications: Ac-WVTH(hR)LAGLLSRSGGVVRKNFVPTDVGPFAF-NH2
B17: SEQ ID NO 24 (peptide)
peptide: B16 peptide with X5R, R12X
modifications: Ac-WVTHRLAGLLS(hR)SGGVVRKNFVPTDVGPFAF-NH2; 20 k Da PEG, Amine linkage
B18: SEQ ID NO 22 (peptide)
peptide: B16 peptide
modifications: Ac-WVTH(hR)LAGLLSRSGGVVRKNFVPTDVGPFAF-NH2; 20 k Da PEG, Amine linkage
B19: SEQ ID NO 29 (peptide)
peptide: B16 peptide with X5R, R12X
modifications: Ac-WVTHRLAGLLS(Cit)SGGVVRKNFVPTDVGPFAF-NH2
B20: SEQ ID NO 26 (peptide)
peptide: B16 peptide with R12X
modifications: Ac-WVTH(hR)LAGLLS(hR)SGGVVRKNFVPTDVGPFAF-NH2; 20 k Da PEG, Amine linkage
B21: SEQ ID NO 32 (peptide)
peptide: B16 peptide with R12X
modifications: Ac-WVTH(Cit)LAGLLS(Cit)SGGVVRKNFVPTDVGPFAF-NH2; 20 k Da PEG, Amine linkage
B22: SEQ ID NO 28 (peptide)
peptide: B16 peptide
modifications: Ac-WVTH(Cit)LAGLLSRSGGVVRKNFVPTDVGPFAF-NH2; 20 k Da PEG, Amine linkage
B23: SEQ ID NO 27 (peptide)
peptide: B16 peptide
modifications: Ac-WVTH(Cit)LAGLLSRSGGVVRKNFVPTDVGPFAF-NH2
B24: SEQ ID NO 23 (peptide)
peptide: B16 peptide with X5R, R12X
modifications: Ac-WVTHRLAGLLS(hR)SGGVVRKNFVPTDVGPFAF-NH2
B25: SEQ ID NO 30 (peptide)
peptide: B16 peptide with X5R, R12X
modifications: Ac-WVTHRLAGLLS(Cit)SGGVVRKNFVPTDVGPFAF-NH2; 20 k Da PEG, Amine linkage

Biological target: T1, CGRP1 receptor (CRLR/RAMP1 complex) of human neuroblastoma SK-N-MC cells (human, UniProt Q16602 23-461; O60894 27-148)
T1 sequence (Q16602 23-461, chain 1 of 2): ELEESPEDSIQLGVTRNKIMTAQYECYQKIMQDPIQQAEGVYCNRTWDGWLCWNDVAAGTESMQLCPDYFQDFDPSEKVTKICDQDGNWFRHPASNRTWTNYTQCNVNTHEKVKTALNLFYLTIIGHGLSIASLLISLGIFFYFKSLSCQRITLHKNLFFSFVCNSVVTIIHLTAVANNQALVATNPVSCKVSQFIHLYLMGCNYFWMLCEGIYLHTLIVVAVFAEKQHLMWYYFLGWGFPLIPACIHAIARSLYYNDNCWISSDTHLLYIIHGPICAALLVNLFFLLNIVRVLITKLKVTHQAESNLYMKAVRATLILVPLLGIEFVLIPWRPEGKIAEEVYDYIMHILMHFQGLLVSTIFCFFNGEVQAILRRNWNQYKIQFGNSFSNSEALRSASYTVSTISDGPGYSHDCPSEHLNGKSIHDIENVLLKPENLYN
T1 sequence (O60894 27-148, chain 2 of 2): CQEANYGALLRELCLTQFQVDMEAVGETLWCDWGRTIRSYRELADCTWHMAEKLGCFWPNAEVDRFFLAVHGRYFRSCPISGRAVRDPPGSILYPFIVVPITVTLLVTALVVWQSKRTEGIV
Test: cell-based or functional assay

| IC50 [nM] | Binder |
| --- | --- |
| 28.9 | B1 |
| 10.8 | B2 |
| 2.73 | B3 |
| 2.57 | B4 |
| 2.34 | B5 |
| 3.85 | B6 |
| 3.22 | B7 |
| 79.3 | B8 |

Biological target: T1, CGRP1 receptor (CRLR/RAMP1 complex) of …
Test: cell-based or functional assay
Remark: another data set of the same source

| IC50 [nM] | Binder |
| --- | --- |
| 0.37 | B9 |
| 6.2 | B10 |
| 0.56 | B11 |
| 2.75 | B12 |
| 0.59 | B13 |
| 0.53 | B14 |
| 1.33 | B15 |
| 0.44 | B16 |
| 0.33 | B17 |
| 0.36 | B18 |
| 0.58 | B19 |
| 0.37 | B20 |
| 3.74 | B21 |
| 2.08 | B22 |
| 0.57 | B23 |
| 0.57 | B24 |
| 0.96 | B25 |
